Source: patent publication US20260266848A1, “COMPOSITIONS AND METHODS FOR DIAGNOSING AND TREATING DYSTONIA” (Duke University, priority 2023, published 2026)
Like-named read-outs stand apart in the source and are kept apart here.

B1: Pura (protein, UniProt P42669 2-321, looked up)
Transcriptional activator …: ADRDSGSEQGGAALGSGGSLGHPGSGSGSGGGGGGGGGGGGSGGGGGAPGGLQHETQELASKRVDIQNKRFYLDVKQNAKGRFLKIAEVGAGGNKSRLTLSMSVAVEFRDYLGDFIEHYAQLGPSQPPDLAQAQDEPRRALKSEFLVRENRKYYMDLKENQRGRFLRIRQTVNRGPGLGSTQGQTIALPAQGLIEFRDALAKLIDDYGVEEEPAELPEGTSLTVDNKRFFFDVGSNKYGVFMRVSEVKPTYRNSITVPYKVWAKFGHTFCKYSEEMKKIQEKQREKRAACEQLHQQQQQQQEETTAATLLLQGEEEGEED
B2: Rab6a (protein, UniProt P35279 2-208, looked up)
Ras-related protein Rab-6A: SAGGDFGNPLRKFKLVFLGEQSVGKTSLITRFMYDSFDNTYQATIGIDFLSKTMYLEDRTVRLQLWDTAGQERFRSLIPSYIRDSTVAVVVYDITNVNSFQQTTKWIDDVRTERGSDVIIMLVGNKTDLADKRQVSIEEGERKAKELNVMFIETSAKAGYNVKQLFRRVAAALPGMESTQDRSREDMIDIKLEKPQEQPVNEGGCSC
B3: Tra2b (protein, UniProt P62996 2-288, looked up)
Transformer-2 protein homolog …: SDSGEQNYGERESRSASRSGSAHGSGKSARHTPARSRSKEDSRRSRSKSRSRSESRSRSRRSSRRHYTRSRSRSRSHRRSRSRSYSRDYRRRHSHSHSPMSTRRRHVGNRANPDPNCCLGVFGLSLYTTERDLREVFSKYGPIADVSIVYDQQSRRSRGFAFVYFENVDDAKEAKERANGMELDGRRIRVDFSITKRPHTPTPGIYMGRPTYGSSRRRDYYDRGYDRGYDDRDYYSRSYRGGGGGGGGWRAAQDRDQIYRRRSPSPYYSRGGYRSRSRSRSYSPRRY
B4: Srsf7 (protein, UniProt Q8BL97 1-267, looked up)
Serine/arginine-rich splicing …: MRSSARGRPLQAATAFFLSLFFFLRRFERGFWLWGGDSETKVYVGNLGTGAGKGELERAFSYYGPLRTVWIARNPPGFAFVEFEDPRDAEDAVRGLDGKVICGSRVRVELSTGMPRRSRFDRPPARRPFDPNDRCYECGEKGHYAYDCHRYSRRRRSRSRSRSHSRSRGRRYSRSRSRSRGRRSRSASPRRSRSVSLRRSRSASLRRSRSGSIIGSRYFQSRSRSRSRSRSISRPRSSRSKSRSPSPKRSRSPSGSPHRSASPERMD
B5: C1qtnf3 (protein, UniProt Q9BXJ4 23-246, looked up)
Complement C1q tumor necrosis …: QDEYMESPQTGGLPPDCSKCCHGDYSFRGYQGPPGPPGPPGIPGNHGNNGNNGATGHEGAKGEKGDKGDLGPRGERGQHGPKGEKGYPGIPPELQIAFMASLATHFSNQNSGIIFSSVETNIGNFFDVMTGRFGAPVSGVYFFTFSMMKHEDVEEVYVYLMHNGNTVFSMYSYEMKGKSDTSSNHAVLKLAKGDEVWLRMGNGALHGDHQRFSTFAGFLLFETK
B6: Pld3 (protein, UniProt O35405 1-488, looked up)
5'-3' exonuclease PLD3: MKPKLMYQELKVPVEEPAGELPLNEIEAWKAAEKKARWVLLVLILAVVGFGALMTQLFLWEYGDLHLFGPNQRPAPCYDPCEAVLVESIPEGLEFPNATTSNPSTSQAWLGLLAGAHSSLDIASFYWTLTNNDTHTQEPSAQQGEEVLQQLQALAPRGVKVRIAVSKPNGPLADLQSLLQSGAQVRMVDMQKLTHGVLHTKFWVVDQTHFYLGSANMDWRSLTQVKELGVVMYNCSCLARDLTKIFEAYWFLGQAGSSIPSTWPRSFDTRYNQETPMEICLNGTPALAYLASAPPPLCPSGRTPDLKALLNVVDSARSFIYIAVMNYLPTMEFSHPRRFWPAIDDGLRRAAYERGVKVRLLISCWGHSDPSMRSFLLSLAALHDNHTHSDIQVKLFVVPTDESQARIPYARVNHNKYMVTERASYIGTSNWSGSYFTETAGTSLLVTQNGHGGLRSQLEAVFLRDWESPYSHDLDTSANSVGNACRLL
B7: Gsto1 (protein, UniProt O09131 2-240, looked up)
Glutathione S-transferase …: SGESSRSLGKGSAPPGPVPEGQIRVYSMRFCPFAQRTLMVLKAKGIRHEVININLKNKPEWFFEKNPLGLVPVLENSQGHLVTESVITCEYLDEAYPEKKLFPDDPYKKARQKMTLESFSKVPPLIASFVRSKRKEDSPNLREALENEFKKLEEGMDNYKSFLGGDSPSMVDYLTWPWFQRLEALELKECLAHTPKLKLWMAAMQQDPVASSHKIDAKTYREYLNLYLQDSPEACDYGL
B8: Mdk (protein, UniProt P12025 23-140, looked up)
Midkine: KKKEKVKKGSECSEWTWGPCTPSSKDCGMGFREGTCGAQTQRVHCKVPCNWKKEFGADCKYKFESWGACDGSTGTKARQGTLKKARYNAQCQETIRVTKPCTSKTKSKTKAKKGKGKD
B9: Pdia4 (protein, UniProt P08003 21-638, looked up)
Protein disulfide-isomerase A4: AASAGDAHEDTSDTENATEEEEEEDDDDLEVKEENGVWVLNDGNFDNFVADKDTVLLEFYAPWCGHCKQFAPEYEKIASTLKDNDPPIAVAKIDATSASMLASKFDVSGYPTIKILKKGQAVDYDGSRTQEEIVAKVREVSQPDWTPPPEVTLSLTKDNFDDVVNNADIILVEFYAPWCGHCKKLAPEYEKAAKELSKRSPPIPLAKVDATEQTDLAKRFDVSGYPTLKIFRKGRPFDYNGPREKYGIVDYMIEQSGPPSKEILTLKQVQEFLKDGDDVVIIGLFQGDGDPAYLQYQDAANNLREDYKFHHTFSPEIAKFLKVSLGKLVLTHPEKFQSKYEPRFHVMDVQGSTEASAIKDYVVKHALPLVGHRKTSNDAKRYSKRPLVVVYYSVDFSFDYRAATQFWRNKVLEVAKDFPEYTFAIADEEDYATEVKDLGLSESGEDVNAAILDESGKKFAMEPEEFDSDTLREFVTAFKKGKLKPVIKSQPVPKNNKGPVKVVVGKTFDAIVMDPKKDVLIEFYAPWCGHCKQLEPIYTSLGKKYKGQKDLVIAKMDATANDITNDQYKVEGFPTIYFAPSGDKKNPIKFEGGNRDLEHLSKFIDEHATKRSRTKEEL
B10: Ssb (protein, UniProt P32067 1-415, looked up)
Lupus La protein homolog: MAENGDNEKMTALEAKICHQIEYYFGDFNLPRDKFLKEQIKLDEGWVPLETMIKFNRLNRLTTDFNVIVQALSKSKAKLMEVSADKTKIRRSPSRPLPEVTDEYKNDVKNRSVYIKGFPTDATLDDIKEWLDDKGQILNIQMRRTLHKTFKGSIFAVFDSIQSAKKFVEIPGQKYKDTNLLILFKEDYFAKKNEERKQSKVEAKLKAKQEHEGRHKPGSTETRALEGKMGCLLKFSGDLDDQTCREDLHFLFSNHGEIKWVDFARGAKEGIILFKEKAKEALEKARNANNGNLLLRNKKVTWKVLEGHAEKEALKKITDDQQESLNKWKSKGGHAGGRFKGSHVFTAARRFKGKGKGNRPGYAGAPKGRGQFHGRRTRFDDDDRRRGPMKRGRDGRDREEPASKHKKRENGARDK

Tests used:
DYT-TOR1A MEF EVs = test: Quantitative LC-MS/MS proteomics of EVs from drug-treated DYT-TOR1A MEF cultures (ritonavir, salubrinal); type: cell-based, mouse; parameters: key to RTV Corrective Direction / RTV Corrective Direction, Grwd1 / RTV Corrective Direction, Srrm2 / RTV Corrective Direction, Rbm17 / RTV Corrective Direction, Dcaf8 / RTV Corrective Direction, Edil3 / RTV Corrective Direction, Timp3 / RTV Corrective Direction, Heatr3 / RTV Corrective Direction, Brd4 / RTV Corrective Direction, P3h4 / RTV Corrective Direction, Pacsin3 / RTV Corrective Direction, Naa50 / RTV Corrective Direction, Lpar6 / RTV Corrective Direction, Ndrg1 / RTV Corrective Direction, Kntc1 / RTV Corrective Direction, Cdk11b / RTV Corrective Direction, Sumo1 / RTV Corrective Direction, Lsm4 / RTV Corrective Direction, Hmga2 / RTV Corrective Direction, Cstf1 / RTV Corrective Direction, Tes / RTV Corrective Direction, Sbno1 / RTV Corrective Direction, Unc119b / RTV Corrective Direction, Cfdp1 / RTV Corrective Direction, Sec61b: YES = protein abundance effect opposite to DYT/WT; settings: for DYT + RTV/DYT Cohen's d: ritonavir (RTV)-treated DYT vs DYT
WT MEF EVs = test: Quantitative LC-MS/MS proteomics of EVs from ISRIB-treated WT MEF cultures; type: cell-based, mouse; settings: EV protein abundance, ISRIB-treated WT vs WT
[1] = EV protein abundance, DYT + RTV (ritonavir) vs DYT, direction compared with DYT/WT

Row | Molecule | RTV Corrective Direction (DYT-TOR1A MEF EVs) | DYT + RTV/DYT Cohen's d (DYT-TOR1A MEF EVs; EV protein abundance) | WT + ISRIB/WT Cohen's d (WT MEF EVs) | RTV Corrective Direction (DYT-TOR1A MEF EVs; [1])
1 | B1 | YES | 2.36 | 0.52 | 
2 | B2 |  | 3.14 | 0.44 | YES
3 | B3 |  | 3.28 | 0.54 | YES
4 | B4 |  | 2.91 | 0.13 | YES
5 | B5 |  | −3.24 | −0.18 | YES
6 | B6 |  | 0.61 | 1.18 | YES
7 | B7 |  | 3.45 | 0.04 | YES
8 | B8 |  | 3.64 | 1.33 | YES
9 | B9 |  | 2.25 | 1.37 | YES
10 | B10 | YES | 2.79 | 0.41 | 
